Data from publication PMC7066243.

Columns and labels:
[1] = biological target: T1, ether-a-go-go 1 voltage-gated potassium channel (hEAG1) (human) (UniProt O95259)
T1 sequence: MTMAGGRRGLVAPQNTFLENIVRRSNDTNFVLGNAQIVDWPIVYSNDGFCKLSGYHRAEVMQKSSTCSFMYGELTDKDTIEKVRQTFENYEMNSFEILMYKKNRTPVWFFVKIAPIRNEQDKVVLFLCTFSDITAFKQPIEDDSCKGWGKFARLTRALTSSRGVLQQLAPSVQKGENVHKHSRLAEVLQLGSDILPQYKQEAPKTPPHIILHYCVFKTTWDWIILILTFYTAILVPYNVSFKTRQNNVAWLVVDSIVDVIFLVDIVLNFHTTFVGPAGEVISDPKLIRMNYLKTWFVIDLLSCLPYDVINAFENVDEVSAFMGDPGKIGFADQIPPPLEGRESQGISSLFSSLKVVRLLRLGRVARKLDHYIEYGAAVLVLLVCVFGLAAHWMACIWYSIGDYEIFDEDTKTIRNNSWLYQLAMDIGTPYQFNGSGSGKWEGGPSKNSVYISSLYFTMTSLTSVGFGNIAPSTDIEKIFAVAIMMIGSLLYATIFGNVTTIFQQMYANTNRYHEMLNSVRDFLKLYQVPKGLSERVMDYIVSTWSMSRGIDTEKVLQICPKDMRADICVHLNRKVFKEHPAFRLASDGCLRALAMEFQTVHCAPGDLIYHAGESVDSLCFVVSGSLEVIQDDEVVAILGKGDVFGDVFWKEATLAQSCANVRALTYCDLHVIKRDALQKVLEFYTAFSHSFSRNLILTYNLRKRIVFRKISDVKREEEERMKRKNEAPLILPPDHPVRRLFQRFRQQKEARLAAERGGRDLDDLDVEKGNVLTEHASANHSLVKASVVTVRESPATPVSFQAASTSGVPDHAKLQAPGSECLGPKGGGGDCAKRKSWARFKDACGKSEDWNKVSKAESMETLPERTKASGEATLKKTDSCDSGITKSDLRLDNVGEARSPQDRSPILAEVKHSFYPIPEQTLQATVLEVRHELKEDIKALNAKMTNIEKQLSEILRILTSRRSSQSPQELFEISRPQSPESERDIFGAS

[2] = biological target: T1, ether-a-go-go 1 voltage-gated potassium channel (hEAG1) (human); remark: listed apart in the source

Row | Substance | IC50 of inhibition of hEAG1 current (two-electrode voltage clamp, Xenopus laevis oocytes) [1] [µM] | inhibition of hEAG1 current at 5 µM (two-electrode voltage clamp, Xenopus laevis oocytes) [2] [%]
1 | native collinein-1 (enzyme) | 4.2 | –
2 | BjSP (from UniProt Q5W959 25-258) (enzyme) | – | 9.2
3 | gyroxin_B1.3 (from UniProt B0FXM1 25-262) (enzyme) | – | 58
4 | mutant collinein-1 (His43Arg) (enzyme) | 4.3 | –
5 | recombinant collinein-1 (enzyme) | 2.5 | –
